Laboratory results from patent US11278600B2, “Human alpha-galactosidase variants” (Codexis, Inc., priority 2014, dated 2022).

What was measured:
Assay type in all cases: biochemical
[1] = HTP-analysis of yeast culture supernatants, no challenge (MUGal hydrolysis); conditions: activity of the variant/activity of WT GLA (SEQ ID NO: 5), yeast supernatant
In short: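 GLA variants expressed in yeast INVSc1, secreted into SD-Ura broth over 66-84 h at 30° C; clarified supernatants tested without challenge. Supernatant mixed with McIlvaine buffer pH 4.8 and 2 mM MUGal (citrate/KCl, pH 4.6), 37° C for 30-180 min, carbonate-quenched, fluorescence Ex 355/Em 448 nm.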

[2] = HTP-analysis of supernatants pretreated with acid (MUGal hydrolysis); conditions: challenge at pH 4.2; activity of the variant/activity of WT GLA (SEQ ID NO: 5); yeast supernatant
In short: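 Fluorescence of MUGal hydrolysis (Ex. 355 nm, Em. 448 nm) is read after sodium carbonate quench. The enzyme source is INVSc1 yeast culture supernatant, first exposed to pH 3.3-4.3 McIlvaine buffer at 37° C. for 1-3 h, then reacted at pH 4.8 for 30-180 minutes.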

[3] = HTP-analysis of supernatants pretreated with base (MUGal hydrolysis); conditions: challenge at pH 7.1; activity of the variant/activity of WT GLA (SEQ ID NO: 5); yeast supernatant
In short: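 Supernatants from INVSc1 yeast expressing GLA variants (SD-Ura, 66-84 h, 30° C) were mixed with McIlvaine buffer pH 7.0-8.2 or 200 mM sodium bicarbonate pH 9.1-9.7 and held 1-18 h at 37° C. Residual activity was then measured on MUGal at pH 4.8/4.3, 37° C, 30-180 min, by fluorescence (Ex 355/Em 448 nm).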

Molecule	Relative Activity of GLA Variants After No Challenge (NC) [1]	Relative Activity of GLA Variants After Challenge at pH 4.2 [2]	Relative Activity of GLA Variants After Challenge at pH 7.1 [3]
85 (protein, Synthetic Polypeptide sequence of Variant No. 85 of mature Human GLA) LDNGLARTPTMGWLHWERFMCNLDCQEEPDSCISEKLFMEMAELMVSEGWKDAGYEYLCIDDCWMAPQRDSEGRLQADPQRFPHGIRQLANYVHSKGLKLGIYADVGNKTCAGFPGSFGYYDIDAQTFADWGVDLLKFDGCYCDSLENLADGYKHMSLALNRTGRSIVYSCEWPLYMWPFQKPNYTEIRQYCNHWRNFADIDDSWKSIKSILDWTSFNQERIVDVAGPGGWNDPDMLVIGNFGLSWNQQVTQMALWAIMAAPLFMSNDLRHISPQAKALLQDKDVIAINQDPLGKQGYQLRQGDNFEVWERPLSGLAWAVAMINRQEIGGPRSYTIAVASLGKGVACNPACFITQLLPVKRKLGFYEWTSRLRSHINPTGTVLLQLENTMQMSKGLLL	+ (+ = 0.5 to 1.5 relative activity over WT GLA (SEQ ID NO: 5))	+ (+ = 0.5 to 1.5 relative activity over WT GLA (SEQ ID NO: 5))	+ (+ = 0.5 to 1.5 relative activity over WT GLA (SEQ ID NO: 5))
87 (protein, Synthetic Polypeptide sequence of Variant No. 87 of mature Human GLA) LDNGLARTPTMGWLHWERFMCNLDCQEEPDSCISEKLFMEMAELMVSEGWKDAGYEYLCIDDCWMAPQRDSEGRLQADPQRFPHGIRQLANYVHSKGLKLGIYADVGNKTCAGFPGSFGYYDIDAQTFADWGVDLLKFDGCYCDSLENLADGYKHMSLALNRTGRSIVYSCEWPLYMWPFQKPNYTEIRQYCNHWRNFADIDDSWKSIKSILDWTSFNQERIVDVAGPGGWNDPDMLVIGNFGLSWNQQVTQMALWAIMAAPLFMSNDLRHISPQAKALLQDKDVIAINQDPLGKQGYQLRQGDNFEVWERPLSGLAWAVAMINRQEIGGPRSYTIAVASLGKGVACNPACFITQLLPVKRKLGFYEWTSRLRSHINPTGTVLLQLENTMQMSKRLLL	+ (+ = 0.5 to 1.5 relative activity over WT GLA (SEQ ID NO: 5))	++ (++ = >1.5 to 2.5 relative activity over WT GLA (SEQ ID NO: 5))	+ (+ = 0.5 to 1.5 relative activity over WT GLA (SEQ ID NO: 5))
89 (protein, Synthetic Polypeptide sequence of Variant No. 89 of mature Human GLA) LDNGLARTPTMGWLHWERFMCNLDCQEEPDSCISEKLFMEMAELMVSEGWKDAGYEYLCIDDCWMAPQRDSEGRLQADPQRFPHGIRQLANYVHSKGLKLGIYADVGNKTCAGFPGSFGYYDIDAQTFADWGVDLLKFDGCYCDSLENLADGYKHMSLALNRTGRSIVYSCEWPLYMWPFQKPNYTEIRQYCNHWRNFADIDDSWKSIKSILDWTSFNQERIVDVAGPGGWNDPDMLVIGNFGLSWNQQVTQMALWAIMAAPLFMSNDLRHISPQAKALLQDKDVIAINQDPLGKQGYQLRQGDNFEVWERPLSGLAWAVAMINRQEIGGPRSYTIAVASLGKGVACNPACFITQLLPVKRKLGFYEWTSRLRSHINPTGTVLLQLENTMQMSKTLLL	++ (++ = >1.5 to 2.5 relative activity over WT GLA (SEQ ID NO: 5))	+ (+ = 0.5 to 1.5 relative activity over WT GLA (SEQ ID NO: 5))	+ (+ = 0.5 to 1.5 relative activity over WT GLA (SEQ ID NO: 5))
88 (protein, Synthetic Polypeptide sequence of Variant No. 88 of mature Human GLA) LDNGLARTPTMGWLHWERFMCNLDCQEEPDSCISEKLFMEMAELMVSEGWKDAGYEYLCIDDCWMAPQRDSEGRLQADPQRFPHGIRQLANYVHSKGLKLGIYADVGNKTCAGFPGSFGYYDIDAQTFADWGVDLLKFDGCYCDSLENLADGYKHMSLALNRTGRSIVYSCEWPLYMWPFQKPNYTEIRQYCNHWRNFADIDDSWKSIKSILDWTSFNQERIVDVAGPGGWNDPDMLVIGNFGLSWNQQVTQMALWAIMAAPLFMSNDLRHISPQAKALLQDKDVIAINQDPLGKQGYQLRQGDNFEVWERPLSGLAWAVAMINRQEIGGPRSYTIAVASLGKGVACNPACFITQLLPVKRKLGFYEWTSRLRSHINPTGTVLLQLENTMQMSKSLLL	+ (+ = 0.5 to 1.5 relative activity over WT GLA (SEQ ID NO: 5))	++ (++ = >1.5 to 2.5 relative activity over WT GLA (SEQ ID NO: 5))	+ (+ = 0.5 to 1.5 relative activity over WT GLA (SEQ ID NO: 5))
90 (protein, Synthetic Polypeptide sequence of Variant No. 90 of mature Human GLA) LDNGLARTPTMGWLHWERFMCNLDCQEEPDSCISEKLFMEMAELMVSEGWKDAGYEYLCIDDCWMAPQRDSEGRLQADPQRFPHGIRQLANYVHSIGLKLGIYADVGNKTCAGFPGSFGYYDIDAQTFADWGVDLLKFDGCYCDSLENLADGYKHMSLALNRTGRSIVYSCEWPLYMWPFQKPNYTEIRQYCNHWRNFADIDDSWKSIKSILDWTSFNQERIVDVAGPGGWNDPDMLVIGNFGLSWNQQVTQMALWAIMAAPLFMSNDLRHISPQAKALLQDKDVIAINQDPLGKQGYQLRQGDNFEVWERPLSGLAWAVAMINRQEIGGPRSYTIAVASLGKGVACNPACFITQLLPVKRKLGFYEWTSRLRSHINPTGTVLLQLENTMQMSKDLLL	+ (+ = 0.5 to 1.5 relative activity over WT GLA (SEQ ID NO: 5))	+ (+ = 0.5 to 1.5 relative activity over WT GLA (SEQ ID NO: 5))	+ (+ = 0.5 to 1.5 relative activity over WT GLA (SEQ ID NO: 5))
86 (protein, Synthetic Polypeptide sequence of Variant No. 86 of mature Human GLA) LDNGLARTPTMGWLHWERFMCNLDCQEEPDSCISEKLFMEMAELMVSEGWKDAGYEYLCIDDCWMAPQRDSEGRLQADPQRFPHGIRQLANYVHSKGLKLGIYADVGNKTCAGFPGSFGYYDIDAQTFADWGVDLLKFDGCYCDSLENLADGYKHMSLALNRTGRSIVYSCEWPLYMWPFQKPNYTEIRQYCNHWRNFADIDDSWKSIKSILDWTSFNQERIVDVAGPGGWNDPDMLVIGNFGLSWNQQVTQMALWAIMAAPLFMSNDLRHISPQAKALLQDKDVIAINQDPLGKQGYQLRQGDNFEVWERPLSGLAWAVAMINRQEIGGPRSYTIAVASLGKGVACNPACFITQLLPVKRKLGFYEWTSRLRSHINPTGTVLLQLENTMQMSKPLLL	++ (++ = >1.5 to 2.5 relative activity over WT GLA (SEQ ID NO: 5))	++ (++ = >1.5 to 2.5 relative activity over WT GLA (SEQ ID NO: 5))	++ (++ = >1.5 to 2.5 relative activity over WT GLA (SEQ ID NO: 5))
